Assay results as given in the supplement of paper PMC10567573.

B1: LYSMD4 (parent)
chain: LLQRELAQEDSLNKLALQYGCKVA
B2: FAM50A (parent)
chain: HIFPASRWEPYDPEKKWDKYTIR

Variants of: B1
Assay: protein stability index of a GFP-peptide fusion (GPS, HEK-293T) (PSI 1-6); higher = more stable
Conditions: c terminus: a fixed tail appended
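Note: lentivirally expressed fusions sorted by FACS into six bins by GFP to DsRed ratio, PSI derived from sequencing read proportions per bin multiplied by bin number.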

Variant	protein stability index
LLQRELAQEDSLNRLALQYGCKVA [K14R]	1
LLQRELAQEDSLNNLALQYGCKVA [K14N]	1.86
LLQRELAQEDSLNYLALQYGCKVA [K14Y]	2.06
LLQRKLAQEDSLNKLALQYGCKVA [E5K]	1.76
LLQRHLAQEDSLNKLALQYGCKVA [E5H]	1.91
LLQREQAQEDSLNKLALQYGCKVA [L6Q]	2.18
LLQRELAQEDSLEKLALQYGCKVA [N13E]	1.65
LLQRELAQEDSLDKLALQYGCKVA [N13D]	1.03
LLQRELAQEDSLWKLALQYGCKVA [N13W]	1.8
ILQRELAQEDSLNKLALQYGCKVA [L1I]	2.28
YLQRELAQEDSLNKLALQYGCKVA [L1Y]	2.5
DLQRELAQEDSLNKLALQYGCKVA [L1D]	1.96
RLQRELAQEDSLNKLALQYGCKVA [L1R]	1.6
LLQRELAQEDSLNKLALQPGCKVA [Y19P]	3.28
LLQRELAQEDSLNKLALQVGCKVA [Y19V]	2.02
LLQRELAQEDSLNKLALQKGCKVA [Y19K]	2.11
LLQRELAQEDSLNKLALQYGCPVA [K22P]	3.45
LLQRELAQEDTLNKLALQYGCKVA [S11T]	1.38
LLQRELAQEDPLNKLALQYGCKVA [S11P]	1.48
LLQRELAQEDALNKLALQYGCKVA [S11A]	1.76
LLQRELAQEDKLNKLALQYGCKVA [S11K]	2.01
LLQRELAQEDDLNKLALQYGCKVA [S11D]	1.88
LLPRELAQEDSLNKLALQYGCKVA [Q3P]	1.41

Variant	protein stability index
LLGRELAQEDSLNKLALQYGCKVA [Q3G]	2.85
LLIRELAQEDSLNKLALQYGCKVA [Q3I]	1.46
LLQRELIQEDSLNKLALQYGCKVA [A7I]	2.63
LLQRELTQEDSLNKLALQYGCKVA [A7T]	1.87
LLQRELFQEDSLNKLALQYGCKVA [A7F]	2.73
LLQRELAQHDSLNKLALQYGCKVA [E9H]	2.54
LLQRELAQWDSLNKLALQYGCKVA [E9W]	1.02
LLQRELAQADSLNKLALQYGCKVA [E9A]	1.53
LLQRELAQYDSLNKLALQYGCKVA [E9Y]	1.9
LLQRELAQQDSLNKLALQYGCKVA [E9Q]	2.2
LLQRELAQRDSLNKLALQYGCKVA [E9R]	1.94
LLQRELAQLDSLNKLALQYGCKVA [E9L]	3.17
LLQNELAQEDSLNKLALQYGCKVA [R4N]	2.04
LLQSELAQEDSLNKLALQYGCKVA [R4S]	1.25
LLQRELAQEDSLNKLALQYGCKEA [V23E]	3.4
LLQRELAQEDSLNKLALQYGCKHA [V23H]	2.77
LLQRELAQEDSLNKLALQYGCKLA [V23L]	2.04
LLQRELAQEDSLNKLALQYGCKVW [A24W]	4.48
LLQRELAQEDSLNKLALQYGCKVC [A24C]	3.03
LLQRELAQEDSLNKYALQYGCKVA [L15Y]	2.27
LLQRELAQEDSLNKDALQYGCKVA [L15D]	4.51
LLQRELAQEDSLNKHALQYGCKVA [L15H]	2.67
LLQRELAQEDSLNKWALQYGCKVA [L15W]	1.2

Variant	protein stability index
LLQRELAQEDSLNKFALQYGCKVA [L15F]	1.07
LLQRELAQEDSLNKTALQYGCKVA [L15T]	2.93
LLQRELAQEDSLNKLALQYGKKVA [C21K]	2.63
LLQRELAQEDSLNKLALQYGHKVA [C21H]	2.89
LLQRELAQEDSLNKLALQYGRKVA [C21R]	2.54
LLQRELAQEDSLNKLALQYGIKVA [C21I]	1.91
LLQRELALEDSLNKLALQYGCKVA [Q8L]	1.58
LLQRELAMEDSLNKLALQYGCKVA [Q8M]	1.92
LLQRELAAEDSLNKLALQYGCKVA [Q8A]	1.73
LLQRELAQEDSLNKLALEYGCKVA [Q18E]	2.65
LLQRELAQEDSLNKLALPYGCKVA [Q18P]	2.95
LLQRELAQEDSLNKLALIYGCKVA [Q18I]	2.4
LLQRELAQEDSLNKLAPQYGCKVA [L17P]	2.98
LLQRELAQEDSLNKLAWQYGCKVA [L17W]	2.65
LLQRELAQEDSLNKLAQQYGCKVA [L17Q]	2.12
LLQRELAQEDSLNKLAVQYGCKVA [L17V]	2.06
LLQRELAQEDSLNKLAIQYGCKVA [L17I]	1.45
LLQRELAQEDSRNKLALQYGCKVA [L12R]	2.49
LLQRELAQEDSGNKLALQYGCKVA [L12G]	3.39
LLQRELAQEDSSNKLALQYGCKVA [L12S]	3.54
LLQRELAQEDSCNKLALQYGCKVA [L12C]	1.72
LLQRELAQEDSNNKLALQYGCKVA [L12N]	3.52
LLQRELAQEDSKNKLALQYGCKVA [L12K]	2.02

Variant	protein stability index
LLQRELAQEDSVNKLALQYGCKVA [L12V]	2.31
LLQRELAQEDSLNKLALQYECKVA [G20E]	1.7
LLQRELAQEDSLNKLALQYYCKVA [G20Y]	1.74
LLQRELAQEDSLNKLALQYNCKVA [G20N]	2.37
LLQRELAQEDSLNKLALQYVCKVA [G20V]	1.31
LLQRELAQEDSLNKLALQYHCKVA [G20H]	3.73
LLQRELAQEDSLNKLALQYCCKVA [G20C]	1.65
LLQRELAQEDSLNKLTLQYGCKVA [A16T]	1.78
LLQRELAQEDSLNKLILQYGCKVA [A16I]	2.66
LLQRELAQEDSLNKLQLQYGCKVA [A16Q]	1.86
LLQRELAQEDSLNKLELQYGCKVA [A16E]	1.65
LLQRELAQEDSLNKLGLQYGCKVA [A16G]	2.18
LLQRELAQEDSLNKLHLQYGCKVA [A16H]	3.4
LAQRELAQEDSLNKLALQYGCKVA [L2A]	2.26
LNQRELAQEDSLNKLALQYGCKVA [L2N]	2.04
LQQRELAQEDSLNKLALQYGCKVA [L2Q]	1.86
LLQRELAQERSLNKLALQYGCKVA [D10R]	1.68
LLQRELAQEISLNKLALQYGCKVA [D10I]	1.04
LLQRELAQEESLNKLALQYGCKVA [D10E]	1.83
LLQRELAQEGSLNKLALQYGCKVA [D10G]	1.9
LLQRELAQEFSLNKLALQYGCKVA [D10F]	1.46

Variants of: B2
Assay: as above
Conditions: c terminus: native

Variant	protein stability index
HIFPASRWEPYDPEKKWSKYTIR [D18S]	1.45
HIFPASRWEPYDPEKKWPKYTIR [D18P]	2.99
HIFPASRWEPYDPEKKWTKYTIR [D18T]	2.37
HIFPASRWEPYDPEKKWQKYTIR [D18Q]	2
HIFPASRWEPYDPEKKWVKYTIR [D18V]	2.17
